According to the RNAGym collection of RNA variant scans (doi:10.1093/nar/gkz1192):

B1: CPEB3 Ribozyme (parent)
chain: UAACAGGGGGCCACAGCAGAAGCGUUCACGUCGCAGCCCCUGUCAGAUUCUGGUGAAUCUGCGAAUUCUGCUGUAUAUCUC

Variants of: B1
Assay: self-cleavage, relative activity (ratio to wild type); higher = more cleavage; in vitro, sequencing
Procedure, shortened: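 Barcoded CPEB3 ribozyme mutants, produced by rounds of error-prone PCR, self-cleaved while being transcribed with T7 RNA polymerase for 5 hours at 37°C and during a subsequent 15 min DNase I step before EDTA was added. Sequencing of template-switched cDNA on Illumina gave cleaved and total reads, and DNA sequencing assigned barcodes to variants. Each variant's relative activity is its cleaved/total read fraction divided by the unmutated ribozyme's fraction, averaged across three batches. A variant needed a minimum of 5 reads.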

| Variant | self-cleavage |
| --- | --- |
| AAACAGGGGGCCACAGCAGAAGCGUUCACGUCGCAGCCCCUGUCAGAUUCUGGUGAAUCUGCGAAUCCUGCUGUAUAUCUC [U1A U67C] | 0.18 |
| AAACAGGGGGCCACAACAGAAGCGUUCACGUCGCAGCCCCUGUCAGAUUCUGGUGAAUCUGCGAAUUCUGCUGUAUAUCUC [U1A G16A] | 0.38 |
| AAACAGGGGGCCACAGCAGAAGCGUUCACGUCGCAGCCCCUGUCAGAUCCUGGUGAAUCUGCGAAUUCUGCUGUAUAUCUC [U1A U49C] | 0.52 |
| AAACAGGGGGCCACAGCAGAAGCGUUCACGUCGCAGCCCCUGUCAGAUACUGGUGAAUCUGCGAAUUCUGCUGUAUAUCUC [U1A U49A] | 0.58 |
| AAACAGGGGGCCACAGCAGAAGCGUUCACGUCGCAGCCCCUGUCAGAUUCUGGUGAAUCUGCGAAUUCUGCGGUAUAUCUC [U1A U72G] | 0.75 |
| AAACAGGGGGCCACAGCAGAAGCGUUCACGUCGCAGCCCCUGUCAGAUUCUGGUGAAUCUGCGAAUUCUGCAGUAUAUCUC [U1A U72A] | 0.55 |
| AAACAGGGGGCCACAGCAGAAGCGUUCACGUCGCAGCCCCUGUCAGAUUCUGGUGAAUCUGCGAAUUCUGCCGUAUAUCUC [U1A U72C] | 1.02 |
| AAACAGGGGGCCACAGCAGAAGCGUUCACGUCGCAGCCCCUGUCAGACUCUGGUGAAUCUGCGAAUUCUGCUGUAUAUCUC [U1A U48C] | 0.63 |
| AAACAGGGGGCCACAGCAGAAGCGUUCACGUCGCAGCCCCUGUCAGAUUCUGGUGAAUCUGCGAAUUCCGCUGUAUAUCUC [U1A U69C] | 0.61 |
| AAACAGGGGGCCACAGCAGAAGCGUUCACGUCGCAGCCCCUGUCAGAUUCUGGUGAAUCUGCGAAUUCAGCUGUAUAUCUC [U1A U69A] | 0.54 |
| AAACAGGGGGCCACAGCAGAAGCGUUCACGUCGCAGCCCCUGUCAGAUUCUGGUGAAUCUGCGAAUUCUGCUUUAUAUCUC [U1A G73U] | 1.44 |
| AAACAGGGGGCCACAGCAGAAGCGUUCACGUCGCAGCCCCUGUCAGAUUCUGGUGAAUCUGCGAAUUCUGCUAUAUAUCUC [U1A G73A] | 1.21 |
| AAACAGGGGGCCACAGCAGAAGCGUUCACGUCGCAGCCCCUGACAGAUUCUGGUGAAUCUGCGAAUUCUGCUGUAUAUCUC [U1A U43A] | 1.08 |
| AAACAGGGGGCCACAGCAGAAGCGUUCACGUCGCAGCCCCUGGCAGAUUCUGGUGAAUCUGCGAAUUCUGCUGUAUAUCUC [U1A U43G] | 0.54 |
| AAACAGGGGGCCACAGCAGAAGCGUUCACGUCGCAGCCCCUGCCAGAUUCUGGUGAAUCUGCGAAUUCUGCUGUAUAUCUC [U1A U43C] | 0.58 |
| AAACAGGGGGCCACAGCAGAAGCGUUCACGUCGCAGCCCCUGUCAGAUUCUGGUGAACCUGCGAAUUCUGCUGUAUAUCUC [U1A U58C] | 0.66 |
| AAACAGGGGGCCACAGCAGAAGCGUUCACGUCGCAGCCCCUGUCAGAUUCUGGUGAAACUGCGAAUUCUGCUGUAUAUCUC [U1A U58A] | 0.29 |

| Variant | self-cleavage |
| --- | --- |
| CAACUGGGGGCCACAGCAGAAGCGUUCACGUCGCAGCCCCUGUCAGAUUCUGGUGAAUCUGCGAAUUCUGCUGUAUAUCUC [U1C A5U] | 1.02 |
| CAACCGGGGGCCACAGCAGAAGCGUUCACGUCGCAGCCCCUGUCAGAUUCUGGUGAAUCUGCGAAUUCUGCUGUAUAUCUC [U1C A5C] | 0.82 |
| CAACGGGGGGCCACAGCAGAAGCGUUCACGUCGCAGCCCCUGUCAGAUUCUGGUGAAUCUGCGAAUUCUGCUGUAUAUCUC [U1C A5G] | 0.68 |
| AAACAGGGGGCCACAGCAGAAGCGUUCACGUCGCAGCCCCUGUCAGAUUCUGGUGAAUCUGCAAAUUCUGCUGUAUAUCUC [U1A G63A] | 0.89 |
| AAACAGGGGGCCACAGCAGAAGCGUUCACGUCACAGCCCCUGUCAGAUUCUGGUGAAUCUGCGAAUUCUGCUGUAUAUCUC [U1A G33A] | 0.28 |
| CCACAGGGGGCCACAGCAGAAGCGUUCACGUCGCAGCCCCUGUCAGAUUCUGGUGAAUCUGCGAAUUCUGCUGUAUAUCUC [U1C A2C] | 0.94 |
| CGACAGGGGGCCACAGCAGAAGCGUUCACGUCGCAGCCCCUGUCAGAUUCUGGUGAAUCUGCGAAUUCUGCUGUAUAUCUC [U1C A2G] | 0.8 |
| CUACAGGGGGCCACAGCAGAAGCGUUCACGUCGCAGCCCCUGUCAGAUUCUGGUGAAUCUGCGAAUUCUGCUGUAUAUCUC [U1C A2U] | 1.04 |
| AAACAGGGGGCCACAGCAGAAGCGUUCACGUCGCAGCCCCUGUCAGAUUCUGGUGAAUCCGCGAAUUCUGCUGUAUAUCUC [U1A U60C] | 0.35 |
| AAACAGGGGGCCACAGCAGAAGCGUUCACGUCGCAGCCCCUGUCAGAUUCUGGUGAAUCAGCGAAUUCUGCUGUAUAUCUC [U1A U60A] | 0.56 |
| AAACAGGGGGCCACAGCAGAAGCGUUCACGUCGCAGCCCCUGUCAGAUUCAGGUGAAUCUGCGAAUUCUGCUGUAUAUCUC [U1A U51A] | 0.95 |
| AAACAGGGGGCCACAGCAGAAGCGUUCACGUCGCAGCCCCUGUCAGAUUCCGGUGAAUCUGCGAAUUCUGCUGUAUAUCUC [U1A U51C] | 0.92 |
| AAACAGGGGGCCACAGCAGAAGCGUUCACGUCGCAGCCCCUGUCAGAUUCUGGUGAAUCUGCGAAUUCUGCUGUACAUCUC [U1A U76C] | 1.04 |
| CAACAGGGGGCCACAGCAGAAGCGUUCACGUCGCAGCCCCUGUCAGAUUCUGGUGAAUCUGCGAAUUCUGCUGUAUAUCUC [U1C] | 0.84 |
| AAACAGGGGGCCACAGCAGAAGCGUUCACGUCGCAGCCCCUGUCAGAUUCUGGUGAAUCUGCGAAUUCUGCUGUAUAUCCC [U1A U80C] | 1.14 |
| CAACAGGGGGCCACAGCUGAAGCGUUCACGUCGCAGCCCCUGUCAGAUUCUGGUGAAUCUGCGAAUUCUGCUGUAUAUCUC [U1C A18U] | 0.36 |
| CAACAGGGGGCCACAGCCGAAGCGUUCACGUCGCAGCCCCUGUCAGAUUCUGGUGAAUCUGCGAAUUCUGCUGUAUAUCUC [U1C A18C] | 1.09 |
